B1: KOD Y7A: modified DNA polymerase derived from Thermococcus kodakaraensis KOD1 with Y7A (protein, listed as Thermococcus kodakaraensis)
chain: MILDTDAITEDGKPVIRIFKKENGEFKIEYDRTFEPYFYALLKDDSAIEEVKKITAERHGTVVTVKRVEKVQKKFLGRPVEVWKLYFTHPQDVPAIRDKIREHPAVIDIYEYDIPFAKRYLIDKGLVPMEGDEELKMLAFDIETLYHEGEEFAEGPILMISYADEEGARVITWKNVDLPYVDVVSTEREMIKRFLRVVKEKDPDVLITYNGDNFDFAYLKKRCEKLGINFALGRDGSEPKIQRMGDRFAVEVKGRIHFDLYPVIRRTINLPTYTLEAVYEAVFGQPKEKVYAEEITTAWETGENLERVARYSMEDAKVTYELGKEFLPMEAQLSRLIGQSLWDVSRSSTGNLVEWFLLRKAYERNELAPNKPDEKELARRRQSYEGGYVKEPERGLWENIVYLDFRSLYPSIIITHNVSPDTLNREGCKEYDVAPQVGHRFCKDFPGFIPSLLGDLLEERQKIKKKMKATIDPIERKLLDYRQRAIKILANSYYGYYGYARARWYCKECAESVTAWGREYITMTIKEIEEKYGFKVIYSDTDGFFATIPGADAETVKKKAMEFLKYINAKLPGALELEYEGFYKRGFFVTKKKYAVIDEEGKITTRGLEIVRRDWSEIAKETQARVLEALLKDGDVEKAVRIVKEVTEKLSKYEVPPEKLVIHEQITRDLKDYKATGPHVAVAKRLAARGVKIRPGTVISYIVLKGSGRIGDRAIPFDEFDPTKHKYDAEYYIENQVLPAVERILRAFGYRKEDLRYQKTRQVGLSAWLKPKGT
B2: KOD P36H: modified KOD DNA polymerase with P36H (protein, listed as Thermococcus kodakaraensis)
chain: MILDTDYITEDGKPVIRIFKKENGEFKIEYDRTFEHYFYALLKDDSAIEEVKKITAERHGTVVTVKRVEKVQKKFLGRPVEVWKLYFTHPQDVPAIRDKIREHPAVIDIYEYDIPFAKRYLIDKGLVPMEGDEELKMLAFDIETLYHEGEEFAEGPILMISYADEEGARVITWKNVDLPYVDVVSTEREMIKRFLRVVKEKDPDVLITYNGDNFDFAYLKKRCEKLGINFALGRDGSEPKIQRMGDRFAVEVKGRIHFDLYPVIRRTINLPTYTLEAVYEAVFGQPKEKVYAEEITTAWETGENLERVARYSMEDAKVTYELGKEFLPMEAQLSRLIGQSLWDVSRSSTGNLVEWFLLRKAYERNELAPNKPDEKELARRRQSYEGGYVKEPERGLWENIVYLDFRSLYPSIIITHNVSPDTLNREGCKEYDVAPQVGHRFCKDFPGFIPSLLGDLLEERQKIKKKMKATIDPIERKLLDYRQRAIKILANSYYGYYGYARARWYCKECAESVTAWGREYITMTIKEIEEKYGFKVIYSDTDGFFATIPGADAETVKKKAMEFLKYINAKLPGALELEYEGFYKRGFFVTKKKYAVIDEEGKITTRGLEIVRRDWSEIAKETQARVLEALLKDGDVEKAVRIVKEVTEKLSKYEVPPEKLVIHEQITRDLKDYKATGPHVAVAKRLAARGVKIRPGTVISYIVLKGSGRIGDRAIPFDEFDPTKHKYDAEYYIENQVLPAVERILRAFGYRKEDLRYQKTRQVGLSAWLKPKGT
B3: KOD V93K: modified KOD DNA polymerase with V93K (protein, listed as Thermococcus kodakaraensis)
chain: MILDTDYITEDGKPVIRIFKKENGEFKIEYDRTFEPYFYALLKDDSAIEEVKKITAERHGTVVTVKRVEKVQKKFLGRPVEVWKLYFTHPQDKPAIRDKIREHPAVIDIYEYDIPFAKRYLIDKGLVPMEGDEELKMLAFDIETLYHEGEEFAEGPILMISYADEEGARVITWKNVDLPYVDVVSTEREMIKRFLRVVKEKDPDVLITYNGDNFDFAYLKKRCEKLGINFALGRDGSEPKIQRMGDRFAVEVKGRIHFDLYPVIRRTINLPTYTLEAVYEAVFGQPKEKVYAEEITTAWETGENLERVARYSMEDAKVTYELGKEFLPMEAQLSRLIGQSLWDVSRSSTGNLVEWFLLRKAYERNELAPNKPDEKELARRRQSYEGGYVKEPERGLWENIVYLDFRSLYPSIIITHNVSPDTLNREGCKEYDVAPQVGHRFCKDFPGFIPSLLGDLLEERQKIKKKMKATIDPIERKLLDYRQRAIKILANSYYGYYGYARARWYCKECAESVTAWGREYITMTIKEIEEKYGFKVIYSDTDGFFATIPGADAETVKKKAMEFLKYINAKLPGALELEYEGFYKRGFFVTKKKYAVIDEEGKITTRGLEIVRRDWSEIAKETQARVLEALLKDGDVEKAVRIVKEVTEKLSKYEVPPEKLVIHEQITRDLKDYKATGPHVAVAKRLAARGVKIRPGTVISYIVLKGSGRIGDRAIPFDEFDPTKHKYDAEYYIENQVLPAVERILRAFGYRKEDLRYQKTRQVGLSAWLKPKGT
B4: KOD V93R: modified KOD DNA polymerase with V93R (protein, listed as Thermococcus kodakaraensis)
chain: MILDTDYITEDGKPVIRIFKKENGEFKIEYDRTFEPYFYALLKDDSAIEEVKKITAERHGTVVTVKRVEKVQKKFLGRPVEVWKLYFTHPQDRPAIRDKIREHPAVIDIYEYDIPFAKRYLIDKGLVPMEGDEELKMLAFDIETLYHEGEEFAEGPILMISYADEEGARVITWKNVDLPYVDVVSTEREMIKRFLRVVKEKDPDVLITYNGDNFDFAYLKKRCEKLGINFALGRDGSEPKIQRMGDRFAVEVKGRIHFDLYPVIRRTINLPTYTLEAVYEAVFGQPKEKVYAEEITTAWETGENLERVARYSMEDAKVTYELGKEFLPMEAQLSRLIGQSLWDVSRSSTGNLVEWFLLRKAYERNELAPNKPDEKELARRRQSYEGGYVKEPERGLWENIVYLDFRSLYPSIIITHNVSPDTLNREGCKEYDVAPQVGHRFCKDFPGFIPSLLGDLLEERQKIKKKMKATIDPIERKLLDYRQRAIKILANSYYGYYGYARARWYCKECAESVTAWGREYITMTIKEIEEKYGFKVIYSDTDGFFATIPGADAETVKKKAMEFLKYINAKLPGALELEYEGFYKRGFFVTKKKYAVIDEEGKITTRGLEIVRRDWSEIAKETQARVLEALLKDGDVEKAVRIVKEVTEKLSKYEVPPEKLVIHEQITRDLKDYKATGPHVAVAKRLAARGVKIRPGTVISYIVLKGSGRIGDRAIPFDEFDPTKHKYDAEYYIENQVLPAVERILRAFGYRKEDLRYQKTRQVGLSAWLKPKGT
B5: KOD V93Q: modified KOD DNA polymerase with V93Q (protein, listed as Thermococcus kodakaraensis)
chain: MILDTDYITEDGKPVIRIFKKENGEFKIEYDRTFEPYFYALLKDDSAIEEVKKITAERHGTVVTVKRVEKVQKKFLGRPVEVWKLYFTHPQDQPAIRDKIREHPAVIDIYEYDIPFAKRYLIDKGLVPMEGDEELKMLAFDIETLYHEGEEFAEGPILMISYADEEGARVITWKNVDLPYVDVVSTEREMIKRFLRVVKEKDPDVLITYNGDNFDFAYLKKRCEKLGINFALGRDGSEPKIQRMGDRFAVEVKGRIHFDLYPVIRRTINLPTYTLEAVYEAVFGQPKEKVYAEEITTAWETGENLERVARYSMEDAKVTYELGKEFLPMEAQLSRLIGQSLWDVSRSSTGNLVEWFLLRKAYERNELAPNKPDEKELARRRQSYEGGYVKEPERGLWENIVYLDFRSLYPSIIITHNVSPDTLNREGCKEYDVAPQVGHRFCKDFPGFIPSLLGDLLEERQKIKKKMKATIDPIERKLLDYRQRAIKILANSYYGYYGYARARWYCKECAESVTAWGREYITMTIKEIEEKYGFKVIYSDTDGFFATIPGADAETVKKKAMEFLKYINAKLPGALELEYEGFYKRGFFVTKKKYAVIDEEGKITTRGLEIVRRDWSEIAKETQARVLEALLKDGDVEKAVRIVKEVTEKLSKYEVPPEKLVIHEQITRDLKDYKATGPHVAVAKRLAARGVKIRPGTVISYIVLKGSGRIGDRAIPFDEFDPTKHKYDAEYYIENQVLPAVERILRAFGYRKEDLRYQKTRQVGLSAWLKPKGT
B6: KOD P36R: modified KOD DNA polymerase with P36R (protein, listed as Thermococcus kodakaraensis)
chain: MILDTDYITEDGKPVIRIFKKENGEFKIEYDRTFERYFYALLKDDSAIEEVKKITAERHGTVVTVKRVEKVQKKFLGRPVEVWKLYFTHPQDVPAIRDKIREHPAVIDIYEYDIPFAKRYLIDKGLVPMEGDEELKMLAFDIETLYHEGEEFAEGPILMISYADEEGARVITWKNVDLPYVDVVSTEREMIKRFLRVVKEKDPDVLITYNGDNFDFAYLKKRCEKLGINFALGRDGSEPKIQRMGDRFAVEVKGRIHFDLYPVIRRTINLPTYTLEAVYEAVFGQPKEKVYAEEITTAWETGENLERVARYSMEDAKVTYELGKEFLPMEAQLSRLIGQSLWDVSRSSTGNLVEWFLLRKAYERNELAPNKPDEKELARRRQSYEGGYVKEPERGLWENIVYLDFRSLYPSIIITHNVSPDTLNREGCKEYDVAPQVGHRFCKDFPGFIPSLLGDLLEERQKIKKKMKATIDPIERKLLDYRQRAIKILANSYYGYYGYARARWYCKECAESVTAWGREYITMTIKEIEEKYGFKVIYSDTDGFFATIPGADAETVKKKAMEFLKYINAKLPGALELEYEGFYKRGFFVTKKKYAVIDEEGKITTRGLEIVRRDWSEIAKETQARVLEALLKDGDVEKAVRIVKEVTEKLSKYEVPPEKLVIHEQITRDLKDYKATGPHVAVAKRLAARGVKIRPGTVISYIVLKGSGRIGDRAIPFDEFDPTKHKYDAEYYIENQVLPAVERILRAFGYRKEDLRYQKTRQVGLSAWLKPKGT

System: 1.3 kbp, 2.8 kbp, and 3.6 kbp of human β-globin
Test: Amplification of long-chain DNA in PCR using dUTP
Format: biochemical
Design: key to Results of PCR in the presence of dUTP 1.3 kbp / Results of PCR in the presence of dUTP 2.8 kbp / Results of PCR in the presence of dUTP 3.6 kbp: A: Amplified; B: Amplified (faint band); C: Not amplified
Details: dTTP replaced by dUTP, 35 cycles
Outline: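 Enzymes (1 U, premixed with KOD antibody) amplified 1.3, 2.8 and 3.6 kbp β-globin from 10 ng human genomic DNA with 2 mM dNTPs having dUTP in place of dTTP, 1.5 mM MgSO4, 35 cycles (98° C. 10 s, 65° C. 30 s, 68° C. ~1 min/kbp). Taq control: 2.5 U, 94° C. denaturation. Yield judged by ethidium-stained agarose gel.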

Question: Which “Results of PCR in the presence of dUTP 1.3 kbp” value (“Results of PCR … of dUTP 1.3 kbp” for short) does the source give for B1 here?
Answer: C

Question: What about the “Results of PCR in the presence of dUTP 2.8 kbp” value (“Results of PCR … of dUTP 2.8 kbp” for short) of the same molecule?
Answer: C

Question: What about the “Results of PCR in the presence of dUTP 3.6 kbp” value (“Results of PCR … of dUTP 3.6 kbp” for short) of the same molecule?
Answer: C

Question: What does the source list for B2?
Answer: Results of PCR in the presence of dUTP 1.3 kbp: B; Results of PCR in the presence of dUTP 2.8 kbp: B; Results of PCR in the presence of dUTP 3.6 kbp: C

Question: How did the “Results of PCR … of dUTP 1.3 kbp” value turn out when B3 was run?
Answer: B

Question: What about the “Results of PCR … of dUTP 2.8 kbp” value of the same molecule?
Answer: B

Question: What about the “Results of PCR … of dUTP 3.6 kbp” value of the same molecule?
Answer: B

Question: B4 was tested. Which “Results of PCR … of dUTP 1.3 kbp” value did it give?
Answer: B

Question: And the “Results of PCR … of dUTP 2.8 kbp” value?
Answer: B

Question: And the “Results of PCR … of dUTP 3.6 kbp” value?
Answer: B

Question: What does the source list for B5?
Answer: Results of PCR in the presence of dUTP 1.3 kbp: C; Results of PCR in the presence of dUTP 2.8 kbp: C; Results of PCR in the presence of dUTP 3.6 kbp: C

Question: Which results are given for B6?
Answer: Results of PCR in the presence of dUTP 1.3 kbp: B; Results of PCR in the presence of dUTP 2.8 kbp: B; Results of PCR in the presence of dUTP 3.6 kbp: B

Reference: US20150218534A1, “MODIFIED DNA POLYMERASE” (TOYOBO CO., LTD., priority 2012, published 2015)
